Laboratory results published in patent US20210060171A1 (DUKE UNIVERSITY, published 2021).
No end group written: not given here.

Legend:
mouse serum albumin = biological target: T1, mouse serum albumin (mouse, UniProt P07724 25-608); experiment: isothermal titration calorimetry, MSA injected into ABD-Dox in PBS at 37 C, independent binding site model
T1 construct: also called MSA

human serum albumin = biological target: T2, human serum albumin (human, UniProt P02768 25-609); experiment: isothermal titration calorimetry, HSA injected into ABD-Dox in PBS at 37 C, independent binding site model
T2 construct: also called HSA; HAS

T1 sequence (P07724 25-608 limits assumed): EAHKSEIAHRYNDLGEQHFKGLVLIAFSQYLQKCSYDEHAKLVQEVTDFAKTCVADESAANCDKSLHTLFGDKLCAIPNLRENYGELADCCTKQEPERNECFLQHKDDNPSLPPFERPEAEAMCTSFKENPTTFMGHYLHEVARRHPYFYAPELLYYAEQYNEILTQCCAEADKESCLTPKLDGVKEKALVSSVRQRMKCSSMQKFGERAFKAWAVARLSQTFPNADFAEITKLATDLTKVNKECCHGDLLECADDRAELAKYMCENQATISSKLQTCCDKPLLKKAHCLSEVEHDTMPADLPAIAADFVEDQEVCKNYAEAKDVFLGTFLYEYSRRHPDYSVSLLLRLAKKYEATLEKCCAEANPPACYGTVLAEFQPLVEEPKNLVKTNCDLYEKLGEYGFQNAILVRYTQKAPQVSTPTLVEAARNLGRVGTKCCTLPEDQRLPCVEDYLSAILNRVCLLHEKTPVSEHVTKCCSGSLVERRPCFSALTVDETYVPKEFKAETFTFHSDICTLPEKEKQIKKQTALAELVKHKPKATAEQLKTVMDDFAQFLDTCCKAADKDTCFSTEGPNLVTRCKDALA

B1: ABD-Dox (ABD-(CGG)4-Dox with 1 and 2 conjugated Dox molecules) (peptide)
chain: GLAEAKVLANRELDKYGVSDYYKNLINNAKTVEGVKALIDEILAALPCGGCGGCGGCGG
modifications: also: 1-2 doxorubicin via EMCH (maleimide, hydrazone) on Cys of C-terminal (CGG)4
notes: Product of sortase A cleavage of KEKE-ELP160-srt-ABD-(CGG)4-Dox; also called AlBiPeD
Mouse serum albumin
  Kd: 73.8 nM
  ΔH: -4.45 kcal/mol
  ΔS: 76.6 Jmol^-1K^-1
Human serum albumin
  Kd: 125 nM
  ΔH: -6.72 kcal/mol
  ΔS: 41.5 Jmol^-1K^-1
